Among the data in PMC12102759 (2025) are screen value values, retold here.

The labels stand for the following.
B1: RNF115 peptide 69-84 (E3 ubiquitin-protein ligase RNF115), 16-mer library wild type / MDM2 SWIB (MDM2 SWIB/MDM2 domain, residues 17-125) (parent complex)
chain 1: THFAELWGHLDHTMFF
chain 2: SQIPASEQETLVRPKPLLLKLLKSVGAQKDTYTMKEVLFYLGQYIMTKRLYDEKQQHIVYCSNDLLGDLFGVPSFSVKEHRKIYTMIYRNLVVVNQQESSDSGTSVSEN
B2: MXI1 peptide 6-21 (Max-interacting protein 1), 16-mer library wild type / SIN3A PAH2 (SIN3A PAH domain, residues 295-383) (parent complex)
chain 1: MINVQRLLEAAEFLER
chain 2: SLQNNQPVEFNHAINYVNKIKNRFQGQPDIYKAFLEILHTYQKEQRNAKEAGGNYTPALTEQEVYAQVARLFKNQEDLLSEFGQFLPDA

Variants of B1 are the subject of one test. Nature of the test: proteomic peptide phage display deep mutational scan (ProP-PD DMS): M13 P8 16-mer library selected against immobilised GST-tagged bait for four days (rounds), NGS of the eluted pools per day and pseudo-replica; bait immobilised on MaxiSorp plates (10 µg), library pre-cleared on GST, 2 h binding at 4 °C, five washes; one round per day, days 1-4; value from days 2 and 3.
Regarding chain 1 L6W, the screen value was 0.000846 average fractional NGS count over selection days 2 and 3 (reads of this peptide / all reads for the bait, averaged over ….
In the case of chain 1 L6H, the screen value was 0.00174 average fractional NGS count over selection days 2 and 3 (reads of this peptide / all reads for the bait, averaged over ….
chain 1 L6I: the screen value is 0.000313 average fractional NGS count over selection days 2 and 3 (reads of this peptide / all reads for the bait, averaged over ….
Still for that read-out and setting: for chain 1 L6Y the value was 0.00417 average fractional NGS count over selection days 2 and 3 (reads of this peptide / all reads for the bait, averaged over …; for chain 1 L6Q, 0.000157 average fractional NGS count over selection days 2 and 3 (reads of this peptide / all reads for the bait, averaged over ….
As to chain 1 M14L, the screen value is 0.000799 average fractional NGS count over selection days 2 and 3 (reads of this peptide / all reads for the bait, averaged over ….
With chain 1 M14T, the screen value is 0.00238 average fractional NGS count over selection days 2 and 3 (reads of this peptide / all reads for the bait, averaged over ….
Still for that read-out and setting: for chain 1 M14A the value was 0.00114 average fractional NGS count over selection days 2 and 3 (reads of this peptide / all reads for the bait, averaged over …; for chain 1 M14G, 0.000223 average fractional NGS count over selection days 2 and 3 (reads of this peptide / all reads for the bait, averaged over ….
In the case of chain 1 M14V, the screen value was 0.00137 average fractional NGS count over selection days 2 and 3 (reads of this peptide / all reads for the bait, averaged over ….
Consider chain 1 E5Q, for which the screen value is 0.00197 average fractional NGS count over selection days 2 and 3 (reads of this peptide / all reads for the bait, averaged over ….
Same read-out and setting: for chain 1 A4Q the value was 0.000494 average fractional NGS count over selection days 2 and 3 (reads of this peptide / all reads for the bait, averaged over …; for chain 1 A4G, 0.000193 average fractional NGS count over selection days 2 and 3 (reads of this peptide / all reads for the bait, averaged over …; for chain 1 A4N, 0.000396 average fractional NGS count over selection days 2 and 3 (reads of this peptide / all reads for the bait, averaged over ….
For the variant chain 1 A4D, the screen value was 0.000369 average fractional NGS count over selection days 2 and 3 (reads of this peptide / all reads for the bait, averaged over ….
In the case of chain 1 A4L, the screen value was 0.000327 average fractional NGS count over selection days 2 and 3 (reads of this peptide / all reads for the bait, averaged over ….
Still for that read-out and setting: in the case of chain 1 A4Y it was 0.000442 average fractional NGS count over selection days 2 and 3 (reads of this peptide / all reads for the bait, averaged over ….
On the same count and under the same terms, in the case of chain 1 H9D it was 0.0019 average fractional NGS count over selection days 2 and 3 (reads of this peptide / all reads for the bait, averaged over …; in that of chain 1 H9W, 0.000883 average fractional NGS count over selection days 2 and 3 (reads of this peptide / all reads for the bait, averaged over ….
In the case of chain 1 H9Y, the screen value is 0.000619 average fractional NGS count over selection days 2 and 3 (reads of this peptide / all reads for the bait, averaged over ….
Turning to chain 1 H9M, the screen value was 0.00238 average fractional NGS count over selection days 2 and 3 (reads of this peptide / all reads for the bait, averaged over ….
Regarding chain 1 H9Q, the screen value is 0.00185 average fractional NGS count over selection days 2 and 3 (reads of this peptide / all reads for the bait, averaged over ….
Still for that read-out and setting: in the case of chain 1 D11I it was 0.000389 average fractional NGS count over selection days 2 and 3 (reads of this peptide / all reads for the bait, averaged over ….
For chain 1 D11K, the screen value is 0.000112 average fractional NGS count over selection days 2 and 3 (reads of this peptide / all reads for the bait, averaged over ….
chain 1 D11F: the screen value is 8.75e-05 average fractional NGS count over selection days 2 and 3 (reads of this peptide / all reads for the bait, averaged over ….
As to chain 1 D11R, the screen value is 0.000139 average fractional NGS count over selection days 2 and 3 (reads of this peptide / all reads for the bait, averaged over ….
Consider chain 1 D11G, for which the screen value was 0.000731 average fractional NGS count over selection days 2 and 3 (reads of this peptide / all reads for the bait, averaged over ….
On the same count and under the same terms, in the case of chain 1 D11N it was 0.00248 average fractional NGS count over selection days 2 and 3 (reads of this peptide / all reads for the bait, averaged over …; in that of chain 1 T1N, 0.000471 average fractional NGS count over selection days 2 and 3 (reads of this peptide / all reads for the bait, averaged over ….
For the variant chain 1 T1A, the screen value was 0.00514 average fractional NGS count over selection days 2 and 3 (reads of this peptide / all reads for the bait, averaged over ….
The same measure, in the same setting: for chain 1 T1L the value was 0.000174 average fractional NGS count over selection days 2 and 3 (reads of this peptide / all reads for the bait, averaged over …; for chain 1 T1Q, 0.00081 average fractional NGS count over selection days 2 and 3 (reads of this peptide / all reads for the bait, averaged over ….
As for chain 1 T1P, the screen value is 0.00338 average fractional NGS count over selection days 2 and 3 (reads of this peptide / all reads for the bait, averaged over ….
Still for that read-out and setting: in the case of chain 1 T1S it was 0.00105 average fractional NGS count over selection days 2 and 3 (reads of this peptide / all reads for the bait, averaged over …; in that of chain 1 T1I, 0.000116 average fractional NGS count over selection days 2 and 3 (reads of this peptide / all reads for the bait, averaged over ….
On to chain 1 F15N, for which the screen value was 0.000153 average fractional NGS count over selection days 2 and 3 (reads of this peptide / all reads for the bait, averaged over ….
On to chain 1 F15I, for which the screen value was 0.00139 average fractional NGS count over selection days 2 and 3 (reads of this peptide / all reads for the bait, averaged over ….
With chain 1 F15A, the screen value is 0.0214 average fractional NGS count over selection days 2 and 3 (reads of this peptide / all reads for the bait, averaged over ….
For the variant chain 1 F15T, the screen value was 0.00702 average fractional NGS count over selection days 2 and 3 (reads of this peptide / all reads for the bait, averaged over ….
Regarding chain 1 F15G, the screen value was 0.00105 average fractional NGS count over selection days 2 and 3 (reads of this peptide / all reads for the bait, averaged over ….
Regarding chain 1 F15V, the screen value is 0.0496 average fractional NGS count over selection days 2 and 3 (reads of this peptide / all reads for the bait, averaged over ….
On the same count and under the same terms, for chain 1 H12A the value was 0.00464 average fractional NGS count over selection days 2 and 3 (reads of this peptide / all reads for the bait, averaged over …; for chain 1 H12I, 0.000167 average fractional NGS count over selection days 2 and 3 (reads of this peptide / all reads for the bait, averaged over …; for chain 1 H12K, 0.00015 average fractional NGS count over selection days 2 and 3 (reads of this peptide / all reads for the bait, averaged over ….
Still for that read-out and setting: for chain 1 H2P the value was 0.00101 average fractional NGS count over selection days 2 and 3 (reads of this peptide / all reads for the bait, averaged over ….
Still for that read-out and setting: in the case of chain 1 H2L it was 0.00441 average fractional NGS count over selection days 2 and 3 (reads of this peptide / all reads for the bait, averaged over …; in that of chain 1 H2K, 0.000959 average fractional NGS count over selection days 2 and 3 (reads of this peptide / all reads for the bait, averaged over …; in that of chain 1 H2T, 0.00209 average fractional NGS count over selection days 2 and 3 (reads of this peptide / all reads for the bait, averaged over ….
On to chain 1 G8K, for which the screen value was 0.000179 average fractional NGS count over selection days 2 and 3 (reads of this peptide / all reads for the bait, averaged over ….
As for chain 1 G8E, the screen value is 0.00632 average fractional NGS count over selection days 2 and 3 (reads of this peptide / all reads for the bait, averaged over ….
Take chain 1 G8S: the screen value is 0.0101 average fractional NGS count over selection days 2 and 3 (reads of this peptide / all reads for the bait, averaged over ….
Take chain 1 T13I: the screen value is 0.00105 average fractional NGS count over selection days 2 and 3 (reads of this peptide / all reads for the bait, averaged over ….
On the same count and under the same terms, in the case of chain 1 T13K it was 0.000352 average fractional NGS count over selection days 2 and 3 (reads of this peptide / all reads for the bait, averaged over ….
Still for that read-out and setting: in the case of chain 1 T13L it was 0.00319 average fractional NGS count over selection days 2 and 3 (reads of this peptide / all reads for the bait, averaged over …; in that of chain 1 T13N, 0.00271 average fractional NGS count over selection days 2 and 3 (reads of this peptide / all reads for the bait, averaged over ….
Consider chain 1 T13S, for which the screen value was 0.0255 average fractional NGS count over selection days 2 and 3 (reads of this peptide / all reads for the bait, averaged over ….

In a further test the parent is B2. The test is described as above.
Consider chain 1 IINVQRLLEAAEFLER, for which the screen value is 0.000114 average fractional NGS count over selection days 2 and 3 (reads of this peptide / all reads for the bait, averaged over ….
As to chain 1 VINVQRLLEAAEFLER, the screen value was 0.000344 average fractional NGS count over selection days 2 and 3 (reads of this peptide / all reads for the bait, averaged over ….
The same measure, in the same setting: for chain 1 WINVQRLLEAAEFLER the value was 0.00153 average fractional NGS count over selection days 2 and 3 (reads of this peptide / all reads for the bait, averaged over ….
With chain 1 GINVQRLLEAAEFLER, the screen value was 0.000229 average fractional NGS count over selection days 2 and 3 (reads of this peptide / all reads for the bait, averaged over ….
The same measure, in the same setting: in the case of chain 1 MINYQRLLEAAEFLER it was 0.000247 average fractional NGS count over selection days 2 and 3 (reads of this peptide / all reads for the bait, averaged over ….
Consider chain 1 MINHQRLLEAAEFLER, for which the screen value is 0.000116 average fractional NGS count over selection days 2 and 3 (reads of this peptide / all reads for the bait, averaged over ….
On to chain 1 MINLQRLLEAAEFLER, for which the screen value is 0.000307 average fractional NGS count over selection days 2 and 3 (reads of this peptide / all reads for the bait, averaged over ….
